Experimental data published in patent publication US20180312579A1 (Genentech, published 2018).
Where a chain is given by its changes, count along the chain named. Each block holds one binder with its values, some of them ahead of it.

What was measured:
[1] = molecular target: T1, human RSPO4 with C-terminal HA tag, stably expressed in 293 cells (human, UniProt Q2I0M5 20-234); test: IHC, FFPE 293 cell pellet, RSPO4 Hi; - = not significant staining
T1 construct: also called hRSPO4; RSPO4 Hi

[2] = molecular target: T2, human RSPO3 with C-terminal HA tag, stably expressed in 293 cells (human, UniProt Q9BXY4 22-272); test: IHC, FFPE 293 cell pellet, RSPO3 Low
T2 construct: Whole open reading frame expressed in HEK-293 cells (high, medium, low); FFPE pellets; also called hRSPO3; RSPO3 Hi
T2 sequence: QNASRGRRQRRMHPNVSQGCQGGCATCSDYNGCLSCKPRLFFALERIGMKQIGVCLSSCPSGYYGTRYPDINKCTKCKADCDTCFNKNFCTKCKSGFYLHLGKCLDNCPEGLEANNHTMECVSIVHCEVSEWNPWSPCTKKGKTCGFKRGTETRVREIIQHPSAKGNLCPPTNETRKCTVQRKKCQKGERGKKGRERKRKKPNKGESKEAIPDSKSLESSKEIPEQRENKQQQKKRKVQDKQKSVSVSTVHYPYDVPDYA

cynomolgus RSPO2 = cynomolgus RSPO2 (cynomolgus, UniProt G7PCH9 22-243); test: cell-based or functional assay
recombinant human RSPO3 = molecular target: T3, recombinant human RSPO3 (human, UniProt Q9BXY4 22-272); test: cell-based or functional assay
T3 sequence: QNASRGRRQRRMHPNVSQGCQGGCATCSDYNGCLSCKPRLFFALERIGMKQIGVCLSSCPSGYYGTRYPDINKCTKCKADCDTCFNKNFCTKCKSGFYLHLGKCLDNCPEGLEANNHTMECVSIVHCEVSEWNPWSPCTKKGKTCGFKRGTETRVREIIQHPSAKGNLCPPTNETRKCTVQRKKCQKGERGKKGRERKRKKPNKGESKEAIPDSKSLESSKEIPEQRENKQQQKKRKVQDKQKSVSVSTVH

mouse RSPO3 = molecular target: T4, mouse RSPO3 (mouse, UniProt Q2TJ95 22-277, limits assumed); test: cell-based or functional assay
T4 sequence (looked up): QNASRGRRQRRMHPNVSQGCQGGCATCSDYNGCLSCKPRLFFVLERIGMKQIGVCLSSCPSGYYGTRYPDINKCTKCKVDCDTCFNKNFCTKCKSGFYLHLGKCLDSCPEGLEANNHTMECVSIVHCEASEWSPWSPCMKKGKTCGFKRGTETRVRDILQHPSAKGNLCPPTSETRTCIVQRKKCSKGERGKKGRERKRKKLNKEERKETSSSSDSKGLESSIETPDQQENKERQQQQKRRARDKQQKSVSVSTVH

cynomolgus RSPO3 = molecular target: T5, cynomolgus RSPO3 (cynomolgus, UniProt A0A2K5UTQ7 22-273); test: cell-based or functional assay
T5 sequence: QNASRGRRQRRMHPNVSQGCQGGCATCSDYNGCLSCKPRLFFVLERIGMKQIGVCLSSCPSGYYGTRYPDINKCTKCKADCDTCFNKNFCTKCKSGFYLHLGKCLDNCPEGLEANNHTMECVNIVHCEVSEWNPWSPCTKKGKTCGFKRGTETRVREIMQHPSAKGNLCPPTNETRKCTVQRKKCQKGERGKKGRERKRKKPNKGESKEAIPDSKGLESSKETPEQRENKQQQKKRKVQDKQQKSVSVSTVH

mouse RSPO2 = mouse RSPO2 (mouse, UniProt Q8BFU0 22-205, limits assumed); test: cell-based or functional assay
recombinant human RSPO2 = recombinant human RSPO2 (human, UniProt Q6UXX9 22-243); test: cell-based or functional assay
[3] = molecular target: T6, FLAG-tagged human RSPO3 (Genentech) (human, UniProt Q9BXY4 22-272); test: competitive binding ELISA: antibody titrated against LGR4-Fc (LGR4-ECD) binding to plate-coated hRSPO3; signal = bound LGR4-Fc, OD(450/630)/OD no antibody
T6 construct: also called hRSPO3; RSPO3 coated plates; not shown: FLAG tag
T6 sequence: T3 sequence
Procedure: (§1) To measure the activity of anti-RSPO antibodies in blocking the binding of LGR4 and -5 ECDs to RSPOs, MaxiSorp 384-well microwell plates (Thermo Scientific Nunc, Roskilde, Denmark) were coated with 25 ul/well of 0.5 μg/ml hRSPO2 or hRSPO3 (Genentech) in 50 mM carbonate buffer, pH 9.6, overnight at 4° C. Plates were blocked with at 80 ul/well of 0.5% bovine serum albumin, 15 parts per million Proclin 300 in phosphate buffered saline (PBS), pH 7.4, for 1 hour. Serially diluted anti-RSPO antibodies ([…] in […] serial dilution plus buffer blank) containing 0.1 μg/ml LGR4-Fc or 0.015 μg/ml LGR5-Fc in assay buffer (0.5% BSA, 0.05% polysorbate 20, 15 parts per million Proclin 300 in PBS) were added to the plates at 25 ul/well. After a 2-hour incubation, LGR4-Fc and LGR5-Fc bound to the plates were detected using peroxidase labeled goat F(ab′)2 anti-human Fc (Jackson ImmunoResearch, West Grove, Pa.). After a 1 hour incubation, the substrate 3,3′,5,5′-tetramethyl benzidine (Moss Inc., Pasadena, Md.) was added to the plates and the reaction was stopped by adding 1 M phosphoric acid. Plates were washed with PBS, pH 7.4, containing 0.05% tween 20, between steps and all the incubation steps following the coating step were performed at room temperature on an orbital shaker. Absorbance was read at 450 nm on a multiskan Ascent reader (Thermo Scientific, Hudson, N.H.).

[4] = molecular target: T7, human RSPO2 with C-terminal HA tag, stably expressed in 293 cells (human, UniProt Q6UXX9 22-243); test: IHC, FFPE 293 cell pellet, RSPO2 Hi
T7 construct: Whole open reading frame was expressed from a lentiviral vector in HEK-293 cells sorted for high, medium or low expression; formalin-fixed paraffin-embedded pellets; also called hRSPO2; RSPO2 Hi

[5] = molecular target: T7, human RSPO2 with C-terminal HA tag, …; test: IHC, FFPE 293 cell pellet, RSPO2 Med
[6] = molecular target: T8, FLAG-tagged human RSPO2 (Genentech) (human, UniProt Q6UXX9 22-243); test: competitive binding ELISA: titrated against biotinylated RNF43-Flag (RNF43-ECD) binding to plate-coated hRSPO2; signal = bound RNF43, normalized OD
T8 construct: also called hRSPO2; RSPO2 coated plates; not shown: FLAG tag

[7] = molecular target: T2, human RSPO3 with C-terminal HA tag, …; test: IHC, FFPE 293 cell pellet, RSPO3 Hi
[8] = molecular target: T9, human RSPO1 with C-terminal HA tag, stably expressed in 293 cells (human, UniProt Q2MKA7 21-263); test: IHC, FFPE 293 cell pellet, RSPO1 Hi; - = not significant staining
T9 construct: also called hRSPO1; RSPO1 Hi

[9] = molecular target: T2, human RSPO3 with C-terminal HA tag, …; test: IHC, FFPE 293 cell pellet, RSPO3 Med
[10] = molecular target: T8, FLAG-tagged human RSPO2 (Genentech); test: competitive binding ELISA: antibody titrated against LGR4-Fc (LGR4-ECD) binding to plate-coated hRSPO2; signal = bound LGR4-Fc, OD(450/630)/OD no antibody
Procedure: as §1

[11] = molecular target: T7, human RSPO2 with C-terminal HA tag, …; test: IHC, FFPE 293 cell pellet, RSPO2 Low
[12] = molecular target: T6, FLAG-tagged human RSPO3 (Genentech); test: competitive binding ELISA: titrated against biotinylated RNF43-Flag (RNF43-ECD) binding to plate-coated hRSPO3; signal = bound RNF43, normalized OD
[13] = molecular target: T10, human RSPO2 L186P variant (human, UniProt Q6UXX9 22-243); test: cell-based or functional assay
T10 chain: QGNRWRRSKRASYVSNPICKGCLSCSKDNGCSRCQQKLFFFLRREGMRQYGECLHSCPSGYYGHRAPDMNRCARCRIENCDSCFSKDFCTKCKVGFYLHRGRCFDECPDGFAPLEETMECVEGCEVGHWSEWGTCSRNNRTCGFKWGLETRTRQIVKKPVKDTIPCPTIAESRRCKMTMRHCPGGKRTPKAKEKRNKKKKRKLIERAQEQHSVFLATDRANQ

[14] = molecular target: T2, human RSPO3 with C-terminal HA tag, …; test: IHC, FFPE 293 cell pellet, RSPO3 Hi; - = not significant staining

T9 sequence (Q2MKA7 other isoform, or with tags, fused parts or gaps limits assumed): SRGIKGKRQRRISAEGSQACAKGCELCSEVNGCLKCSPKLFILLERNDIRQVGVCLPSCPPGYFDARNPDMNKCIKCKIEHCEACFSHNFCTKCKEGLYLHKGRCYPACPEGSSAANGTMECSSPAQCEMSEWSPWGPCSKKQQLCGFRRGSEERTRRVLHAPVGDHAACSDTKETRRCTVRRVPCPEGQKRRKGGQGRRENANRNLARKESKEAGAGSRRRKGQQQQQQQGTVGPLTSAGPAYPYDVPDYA
T1 sequence (Q2I0M5 other isoform, or with tags, fused parts or gaps limits assumed): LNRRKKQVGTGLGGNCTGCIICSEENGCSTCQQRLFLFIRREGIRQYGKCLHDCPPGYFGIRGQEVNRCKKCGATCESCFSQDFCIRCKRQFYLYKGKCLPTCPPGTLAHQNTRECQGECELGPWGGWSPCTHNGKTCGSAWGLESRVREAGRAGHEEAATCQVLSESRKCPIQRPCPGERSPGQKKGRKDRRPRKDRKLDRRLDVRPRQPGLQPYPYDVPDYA
Sequence of mouse RSPO2 (Q8BFU0 22-205 limits assumed): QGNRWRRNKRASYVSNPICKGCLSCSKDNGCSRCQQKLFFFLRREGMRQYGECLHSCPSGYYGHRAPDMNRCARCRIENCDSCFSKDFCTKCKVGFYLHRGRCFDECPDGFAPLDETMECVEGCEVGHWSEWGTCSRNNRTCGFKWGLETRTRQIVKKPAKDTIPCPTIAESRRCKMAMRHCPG

binding result [1]: no binding
IC50, WNT luciferase reporter, bivalent antibody (cynomolgus RSPO2): 0.5 pM
IC50, WNT luciferase reporter, bivalent antibody (recombinant human RSPO3): > 500000 pM
IC50, WNT luciferase reporter, bivalent antibody (mouse RSPO3): > 500000 pM
IC50, WNT luciferase reporter, bivalent antibody (cynomolgus RSPO3): > 500000 pM
IC50, WNT luciferase reporter, bivalent antibody (mouse RSPO2): 2.2 pM
IC50, WNT luciferase reporter, bivalent antibody (recombinant human RSPO2): 0.4 pM
percentage of cells staining [4]: 80%
percentage of cells staining [5]: 40%
IC50 (read off the curve), WNT reporter RLU stimulated by 38 pM rhRSPO2 L186P [13]: ~0.6 pM
IC50 (read off the curve) [6]: ~0.1 µg/mL
binding result [14]: no binding
binding result [8]: no binding
EC50 (read off the curve) [10]: ~0.07 µg/mL
percentage of cells staining [11]: 30%
B3: 1A1 (antibody, V domains shown)
VH: EVQLVESGGGLVKPEGSLKLSCVASGFTFSDYFMSWVRQAPGQGLEWVAHIYTKTYNYATYYSGSVKGRFSISRDDSRNMVYLQMNNLRTEDTATYYCTTDEDWYFDFWGQGTQVTVSS
VL: QPVLTQSPSVSASLGASVKLTCTLSSQHSTNYIEWYQQHPDKSPKFLMQVRDGSHSKGDGTPDRFSGSSSGAHRYLSISNLQLEDEAIYYCGLSDVSLYLFGSGTQLTLL
notes: also called monoclonal antibody 1A1

binding result [1]: no binding
percentage of cells staining [4]: 95%
percentage of cells staining [5]: 60%
binding result [14]: no binding
binding result [8]: no binding
percentage of cells staining [11]: 40%
B4: 49G5 (antibody, V domains shown)
VH: QVQLKESGPGLVQPSQTLSLTCTVSGFSLTSYNIHWVRQPPGKGLEWMGAVWRGGGTYYNSNLKSRVIITRDTSKSQVLLKLNNLQHEDTAMYYCAREELRYVYFDVWGQGIQVTVSS
VL: B3 VL with V3L, H28Y, S29N, N31Y, V50L, R51S, T61I, L93V, L100V, L109V
notes: also called monoclonal antibody 49G5

Second part, the binder before the results:

B1: 26E11 (antibody, V domains shown)
VH: EVQLQESGPSLVKPSQTLSLTCSVTGDSITSGYWSWIRKFPGNKLEFMGYISFSGKTYYIPSLKSRVSITRDTSKNQYYLQLNSVTTEDTATYYCATYHGYGGPWFAYWGQGTLVTVSS
VL: DIKMTQSPSSMYASLGERVTITCKASQDIDSYLSWFQQKPGKSPKTLIYLTNRLIDGVPSRFSGSGSGQDYSLTINSLEYEDMGIYYCLQYDEFPVTFGAGTRLEIK
notes: also called monoclonal antibody 26E11; anti-RSPO2/3 antibody
binding result [1]: no binding
percentage of cells staining [2]: 50%
IC50, WNT luciferase reporter, bivalent antibody (cynomolgus RSPO2): 2700 pM
IC50, WNT luciferase reporter, bivalent antibody (recombinant human RSPO3): 0.01 pM
IC50, WNT luciferase reporter, bivalent antibody (mouse RSPO3): 0.4 pM
IC50, WNT luciferase reporter, bivalent antibody (cynomolgus RSPO3): 0.2 pM
IC50, WNT luciferase reporter, bivalent antibody (mouse RSPO2): 24000 pM
IC50, WNT luciferase reporter, bivalent antibody (recombinant human RSPO2): 9800 pM
IC50 (read off the curve) [3]: ~0.1 µg/mL
percentage of cells staining [4]: 70%
percentage of cells staining [5]: 40%
IC50 (read off the curve) [6]: ~0.1 µg/mL
percentage of cells staining [7]: 90%
binding result [8]: no binding
percentage of cells staining [9]: 70%
IC50 (read off the curve) [10]: ~0.09 µg/mL
percentage of cells staining [11]: 10%
IC50 (read off the curve) [12]: ~0.08 µg/mL

B2: 36D2 (antibody, V domains shown)
VH: QIQLQESGPGLVKPSQSLSLTCSVTGNSITSSDWSWIRQFPGKKLEWMGYMNYGGGTYYNPSLENRISITRDTSKNQFFLHLKSVTTEDTATYYCARERPHPYAYFDVWGQGIQVTVSS
VL: ELVFTQPQSVSGSLGQEISISCTRSSGNIGSNYVSWYQQQSSNKPRLLIYKFDQRPSGVPDRFSGSTDSSSNSGILTISRLQPEDEGDYYCLSGYDKYVFGSGTQLTLL
notes: also called monoclonal antibody 36D2
binding result [1]: no binding
IC50, WNT luciferase reporter, bivalent antibody (cynomolgus RSPO2): 13 pM
IC50, WNT luciferase reporter, bivalent antibody (recombinant human RSPO3): > 500000 pM
IC50, WNT luciferase reporter, bivalent antibody (mouse RSPO3): > 500000 pM
IC50, WNT luciferase reporter, bivalent antibody (cynomolgus RSPO3): > 500000 pM
IC50, WNT luciferase reporter, bivalent antibody (mouse RSPO2): 44 pM
IC50, WNT luciferase reporter, bivalent antibody (recombinant human RSPO2): 12 pM
percentage of cells staining [4]: > 95%
percentage of cells staining [5]: 50%
IC50 (read off the curve), WNT reporter RLU stimulated by 38 pM rhRSPO2 L186P [13]: ~20 pM
IC50 (read off the curve) [6]: ~1 µg/mL
binding result [14]: no binding
binding result [8]: no binding
percentage of cells staining [11]: < 5%
